In publication PMC7714071, “Interaction of amyloid beta with humanin and acetylcholinesterase is modulated by ATP” (FEBS Open Bio, 2020):

Key:
Aβ cytotoxicity = conditions: versus Aβ aggregates alone; cited from earlier work
Excerpt: Almost all types of cells produce amyloid beta (Aβ), a peptide well recognized for its role in the development and progression of different stages of Alzheimer's disease (AD). The Aβ peptide is ~ 4 kDa and derived from the sequential processing of the higher molecular weight amyloid precursor protein by two membrane‐bound endoproteases, β‐ and γ‐secretase. Different C‐terminal Aβ heterogeneity results from processing by γ‐secretase, where Aβ40 represents the most abundant isoform (~ 90%) as compared to Aβ42 (~ 10%). Self‐assembled Aβ40/42 peptides into amyloid fib ... || Soluble oligomers of proteins implicated in different diseases are primarily thought to be the main toxic form as opposed to the larger fibrillar assemblies. Aβ regions containing Tyr and Ser (H6DSGY10 and G25SNKG29) (Fig. 1) along with post‐translational modifications of these regions, have been implicated in misfolding, oligomerization, or fibril formation of Aβ [5, 10, 11, 16, 41]. […] Aβ proteins a ... || Acetylcholinesterase (AChE) is an enzyme known for its role in terminating acetylcholine‐mediated neurotransmission at the synaptic cleft. The majority of the cortical AChE in the Alzheimer's brain is mainly associated with the amyloid core of senile plaques. […]

H1299 cells = assay: MTT cell viability, H1299; assay type: cell-based, human; conditions: AChE-ID media, 48 h, H1299; Fig. 7B
Procedure: (§1) Human NSCLC cell lines, A549 (ATCC CCL‐185) and H1299 (ATCC CRL‐5803), were purchased from the American Type Culture Collection (ATCC, Manassas, VA, USA). Cells were seeded as we reported earlier in 5 mL HyClone Dulbecco's modified Eagle's medium/nutrient mixture F‐12 (DMEM/F12) (GE Healthcare Life Sciences, Pittsburgh, PA, USA), supplemented with 10% Fetalgro bovine growth serum (FBS; RMBIO, Missoula, MT, USA), 50 U·mL^−1 penicillin, and […] streptomycin (Invitrogen, Life Technologies, Carlsbad, CA, USA) in 25‐cm^2 tissue culture flasks, and allowed to grow overnight in an incubator at 37 °C, 95% humidity, and 5% CO2. The cells were counted after trypan blue staining, with a hemocytometer.
(§2) The 3‐(4,5‐dimethylthiazol‐2‐yl)‐2,5‐diphenyl‐tetrazolium bromide (MTT) reduction assay (Sigma‐Aldrich), used to measure cell viability, was carried out as we reported earlier. […] The absorbance was measured at 570 nm in a plate reader. […]
(§3) Conditioned media were immunodepleted (ID) according to the methods previously described and our recently published report. […] The ID media were then carefully removed and analyzed for the presence of the target protein or peptide by ELISA. The same amount of protein (3 µL of 600 µg·mL^−1 total protein) of each sample was analyzed in the experiments. […]

Aβ42 = conditions: HN and AChE compared; cited from earlier work
Excerpt: Humanin has been previously reported to bind amino acid residues 17–28 of Aβ (Fig. 1). AChE is also known to bind Aβ (1–16) and the Aβ (12–28) region (Fig. 1). Since the binding sites of AChE and HN on Aβ are overlapping, we previously investigated whether HN and AChE can simultaneously bind Aβ [79].

A549 cells = assay: MTT cell viability, A549; assay type: cell-based, human; conditions: AChE-ID media, 48 h, A549; Fig. 7A
Procedure: as §1, §2, §3

B1: acetylcholinesterase (protein)
chain: EGREDAELLVTVRGGRLRGIRLKTPGGPVSAFLGIPFAEPPMGPRRFLPPEPKQPWSGVVDATTFQSVCYQYVDTLYPGFEGTEMWNPNRELSEDCLYLNVWTPYPRPTSPTPVLVWIYGGGFYSGASSLDVYDGRFLVQAERTVLVSMNYRVGAFGFLALPGSREAPGNVGLLDQRLALQWVQENVAAFGGDPTSVTLFGESAGAASVGMHLLSPPSRGLFHRAVLQSGAPNGPWATVGMGEARRRATQLAHLVGCPPGGTGGNDTELVACLRTRPAQVLVNHEWHVLPQESVFRFSFVPVVDGDFLSDTPEALINAGDFHGLQVLVGVVKDEGSYFLVYGAPGFSKDNESLISRAEFLAGVRVGVPQVSDLAAEAVVLHYTDWLHPEDPARLREALSDVVGDHNVVCPVAQLAGRLAAQGARVYAYVFEHRASTLSWPLWMGVPHGYEIEFIFGIPLDPSRNYTAEEKIFAQRLMRYWANFARTGDPNEPRDPKAPQWPPYTAGAQQYVSLDLRPLEVRRGLRAQACAFWNRFLPKLLSATDTLDEAERQWKAEFHRWSSYMVHWKNQFDHYSKQDRCSDL
- toxicity of AChE-amyloid complexes (Aβ cytotoxicity): Higher toxicity
- effect of AChE immunodepletion on cell viability (H1299 cells): no effect
- affinity for Aβ42 (Aβ42): comparable affinities
- increase in cell viability upon AChE immunodepletion (A549 cells): ~ 1.45 fold
